Measurements published in patent US20220233552A1 (CONSEJO SUPERIOR DE INVESTIGACIONES CIENT FICAS CSIC, published 2022).
Changes are numbered by the printed parent chain. In names and notes the source's numbering stands. Each block holds one binder with its values, some of them ahead of it.

Tests used:
[1] = target: T1, protein tyrosine phosphatase-1B (PTP1B) (human, UniProt P18031 1-435); assay: IL13Rα2 immunoprecipitation with mass spectrometry (U251 lysates) and reciprocal co-IP/Western blot in CRC, GBM and OC cell lines
T1 construct: Endogenous PTP1B of the cell lines, detected by co-immunoprecipitation, Western blot and mass spectrometry; also called PTPB1
T1 sequence (looked up): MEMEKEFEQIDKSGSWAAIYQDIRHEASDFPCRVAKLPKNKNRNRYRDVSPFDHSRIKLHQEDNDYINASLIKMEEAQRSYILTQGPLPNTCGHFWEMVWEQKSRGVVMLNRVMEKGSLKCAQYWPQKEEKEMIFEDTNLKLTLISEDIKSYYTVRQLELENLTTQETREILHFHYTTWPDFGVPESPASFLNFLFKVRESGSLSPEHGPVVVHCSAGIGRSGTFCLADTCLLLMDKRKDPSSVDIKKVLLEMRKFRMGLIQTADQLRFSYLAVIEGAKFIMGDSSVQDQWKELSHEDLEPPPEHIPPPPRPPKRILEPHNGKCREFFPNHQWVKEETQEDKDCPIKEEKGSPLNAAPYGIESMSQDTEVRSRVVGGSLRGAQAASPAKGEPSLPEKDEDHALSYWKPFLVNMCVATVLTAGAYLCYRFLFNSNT
Text: (§1) FIG. 1. […] Protein position was tentatively assigned based on existing literature.
To characterize the protein interaction network of IL13Rα2, whole-cell lysates of the human GBM cell line U251 were immunoprecipitated and analyzed by mass spectrometry.

[2] = target: T1, protein tyrosine phosphatase-1B (PTP1B); assay: co-immunoprecipitation (IL13Rα2 IP, PTP1B Western blot) in RKO transfectants
Text: as §1

- binding result [1]: binds
B1: IL13Rα2 (wild type) (receptor, human, UniProt Q14627 27-380, looked up)
chain: DTEIKVNPPQDFEIVDPGYLGYLYLQWQPPLSLDHFKECTVEYELKYRNIGSETWKTIITKNLHYKDGFDLNKGIEAKIHTLLPWQCTNGSEVQSSWAETTYWISPQGIPETKVQDMDCVYYNWQYLLCSWKPGIGVLLDTNYNLFYWYEGLDHALQCVDYIKADGQNIGCRFPYLEASDYKDFYICVNGSSENKPIRSSYFTFQLQNIVKPLPPVYLTFTRESSCEIKLKWSIPLGPIPARCFDYEIEIREDDTTLVTATVENETYTLKTTNETRQLCFVVRSKVNIYCSDDGIWSEWSDKQCWEGEDLSKKTLLRFWLPFGFILILVIFVTGLLLRKPNTYPKMIPEFFCDT
notes: whole, on cells; Used as endogenous protein in lysates of human CRC, GBM and OC cell lines and as transfected wild type in RKO cells; also called IL13Rα2 WT; wild-type IL13Rα2

- binding result [2]: no binding
B2: IL13Rα2 Tyr369Phe mutant (receptor, human, UniProt Q14627 27-380, looked up)
chain: B1 chain with Y343F
notes: whole, on cells; immunoprecipitated from lysates; also called Y369F mutated form; mutant Tyr369Phe
